Experimental data as given in patent US20140348819A1, “Methods of Treating Cancer” (Dana-Farber Cancer Institute, Inc., priority 2011, published 2014).

Test system: six V600E BRAF melanoma cell lines
Assay: Screening of recombinant RTK ligands for ability to confer resistance to BRAFi (PLX4720) or MEKi (PD184352) (Table 4)
Type: cell-based, human
Design: ability of recombinant RTK ligand to confer resistance / ability of recombinant RTK ligand to confer resistance (screening value): scale not given here
Summary of the method: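 Resistance to BRAFi (PLX4720) or MEKi (PD184352) was tested in six V600E BRAF melanoma lines given one of 22 recombinant RTK ligands. For a subset of RTKs, activation was checked by high-throughput tyrosine kinase phosphorylation profiling and western blot.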

B1: BDNF (protein, UniProt P23560 19-247, looked up)
Neurotrophic factor BDNF …: APMKEANIRGQGGLAYPGVRTHGTLESVNGPKAGSRGLTSLADTFEHVIEELLDEDQKVRPNEENNKDADLYTSRVMLSSQVPLEPPLLFLLEEYKNYLDAANMSMRVRRHSDPARRGELSVCDSISEWVTAADKKTAVDMSGGTVTVLEKVPVSKGQLKQYFYETKCNPMGYTKEGCRGIDKRHWNSQCRTTQSYVRALTMDSKKRIGWRFIRIDTSCVCTLTIKRGR
ability of recombinant RTK ligand to confer resistance (A2058, PD184352 - 1 uM, ligand 0.4 ng/ml): 0.99 | ability of recombinant RTK ligand to confer resistance (A2058, PD184352 - 1 uM, ligand 1.6 ng/ml): 0.97 | ability of recombinant RTK ligand to confer resistance (A2058, PD184352 - 1 uM, ligand 6.25 ng/ml): 0.94 | ability of recombinant RTK ligand to confer resistance (A2058, PD184352 - 1 uM, ligand 25 ng/ml): 1.03 | ability of recombinant RTK ligand to confer resistance (A2058, PD184352 - 1 uM, ligand 100 ng/ml): 1.10 | ability of recombinant RTK ligand to confer resistance (A2058, PLX4720 - 2 uM, ligand 0.4 ng/ml): 1.00 | ability of recombinant RTK ligand to confer resistance (A2058, PLX4720 - 2 uM, ligand 1.6 ng/ml): 0.95 | ability of recombinant RTK ligand to confer resistance (A2058, PLX4720 - 2 uM, ligand 6.25 ng/ml): 0.95 | ability of recombinant RTK ligand to confer resistance (A2058, PLX4720 - 2 uM, ligand 25 ng/ml): 0.98 | ability of recombinant RTK ligand to confer resistance (A2058, PLX4720 - 2 uM, ligand 100 ng/ml): 1.15 | ability of recombinant RTK ligand to confer resistance (C32, PD184352 - 1 uM, ligand 0.4 ng/ml): 1.03 | ability of recombinant RTK ligand to confer resistance (C32, PD184352 - 1 uM, ligand 1.6 ng/ml): 1.01 | ability of recombinant RTK ligand to confer resistance (C32, PD184352 - 1 uM, ligand 6.25 ng/ml): 1.06 | ability of recombinant RTK ligand to confer resistance (C32, PD184352 - 1 uM, ligand 25 ng/ml): 1.03 | ability of recombinant RTK ligand to confer resistance (C32, PD184352 - 1 uM, ligand 100 ng/ml): 0.95 | ability of recombinant RTK ligand to confer resistance (C32, PLX4720 - 2 uM, ligand 0.4 ng/ml): 1.09 | ability of recombinant RTK ligand to confer resistance (C32, PLX4720 - 2 uM, ligand 1.6 ng/ml): 0.99 | ability of recombinant RTK ligand to confer resistance (C32, PLX4720 - 2 uM, ligand 6.25 ng/ml): 1.02 | ability of recombinant RTK ligand to confer resistance (C32, PLX4720 - 2 uM, ligand 25 ng/ml): 1.01 | ability of recombinant RTK ligand to confer resistance (C32, PLX4720 - 2 uM, ligand 100 ng/ml): 0.94 | ability of recombinant RTK ligand to confer resistance (Colo 829, PD184352 - 1 uM, ligand 0.4 ng/ml): 1.03 | ability of recombinant RTK ligand to confer resistance (Colo 829, PD184352 - 1 uM, ligand 1.6 ng/ml): 0.99 | ability of recombinant RTK ligand to confer resistance (Colo 829, PD184352 - 1 uM, ligand 6.25 ng/ml): 0.98 | ability of recombinant RTK ligand to confer resistance (Colo 829, PD184352 - 1 uM, ligand 25 ng/ml): 0.98 | ability of recombinant RTK ligand to confer resistance (Colo 829, PD184352 - 1 uM, ligand 100 ng/ml): 0.93 | ability of recombinant RTK ligand to confer resistance (Colo 829, PLX4720 - 2 uM, ligand 0.4 ng/ml): 1.02 | ability of recombinant RTK ligand to confer resistance (Colo 829, PLX4720 - 2 uM, ligand 1.6 ng/ml): 1.00 | ability of recombinant RTK ligand to confer resistance (Colo 829, PLX4720 - 2 uM, ligand 6.25 ng/ml): 0.96 | ability of recombinant RTK ligand to confer resistance (Colo 829, PLX4720 - 2 uM, ligand 25 ng/ml): 0.95 | ability of recombinant RTK ligand to confer resistance (Colo 829, PLX4720 - 2 uM, ligand 100 ng/ml): 0.94 | ability of recombinant RTK ligand to confer resistance (G-361, PD184352 - 1 uM, ligand 0.4 ng/ml): 1.09 | ability of recombinant RTK ligand to confer resistance (G-361, PD184352 - 1 uM, ligand 1.6 ng/ml): 0.95 | ability of recombinant RTK ligand to confer resistance (G-361, PD184352 - 1 uM, ligand 6.25 ng/ml): 1.03 | ability of recombinant RTK ligand to confer resistance (G-361, PD184352 - 1 uM, ligand 25 ng/ml): 0.91 | ability of recombinant RTK ligand to confer resistance (G-361, PD184352 - 1 uM, ligand 100 ng/ml): 0.91 | ability of recombinant RTK ligand to confer resistance (G-361, PLX4720 - 2 uM, ligand 0.4 ng/ml): 0.98 | ability of recombinant RTK ligand to confer resistance (G-361, PLX4720 - 2 uM, ligand 1.6 ng/ml): 0.82 | ability of recombinant RTK ligand to confer resistance (G-361, PLX4720 - 2 uM, ligand 6.25 ng/ml): 1.04 | ability of recombinant RTK ligand to confer resistance (G-361, PLX4720 - 2 uM, ligand 25 ng/ml): 0.89 | ability of recombinant RTK ligand to confer resistance (G-361, PLX4720 - 2 uM, ligand 100 ng/ml): 0.87 | ability of recombinant RTK ligand to confer resistance (SK-MEL-5, PD184352 - 1 uM, ligand 0.4 ng/ml): 1.01 | ability of recombinant RTK ligand to confer resistance (SK-MEL-5, PD184352 - 1 uM, ligand 1.6 ng/ml): 0.97 | ability of recombinant RTK ligand to confer resistance (SK-MEL-5, PD184352 - 1 uM, ligand 6.25 ng/ml): 1.01 | ability of recombinant RTK ligand to confer resistance (SK-MEL-5, PD184352 - 1 uM, ligand 25 ng/ml): 0.96 | ability of recombinant RTK ligand to confer resistance (SK-MEL-5, PD184352 - 1 uM, ligand 100 ng/ml): 0.97 | ability of recombinant RTK ligand to confer resistance (SK-MEL-5, PLX4720 - 2 uM, ligand 0.4 ng/ml): 1.07 | ability of recombinant RTK ligand to confer resistance (SK-MEL-5, PLX4720 - 2 uM, ligand 1.6 ng/ml): 1.02 | ability of recombinant RTK ligand to confer resistance (SK-MEL-5, PLX4720 - 2 uM, ligand 6.25 ng/ml): 1.07 | ability of recombinant RTK ligand to confer resistance (SK-MEL-5, PLX4720 - 2 uM, ligand 25 ng/ml): 1.08 | ability of recombinant RTK ligand to confer resistance (SK-MEL-5, PLX4720 - 2 uM, ligand 100 ng/ml): 1.04 | ability of recombinant RTK ligand to confer resistance (SK-MEL-28, PD184352 - 1 uM, ligand 0.4 ng/ml): 1.04 | ability of recombinant RTK ligand to confer resistance (SK-MEL-28, PD184352 - 1 uM, ligand 1.6 ng/ml): 1.04 | ability of recombinant RTK ligand to confer resistance (SK-MEL-28, PD184352 - 1 uM, ligand 6.25 ng/ml): 0.91 | ability of recombinant RTK ligand to confer resistance (SK-MEL-28, PD184352 - 1 uM, ligand 25 ng/ml): 0.97 | ability of recombinant RTK ligand to confer resistance (SK-MEL-28, PD184352 - 1 uM, ligand 100 ng/ml): 1.07 | ability of recombinant RTK ligand to confer resistance (SK-MEL-28, PLX4720 - 2 uM, ligand 0.4 ng/ml): 0.97 | ability of recombinant RTK ligand to confer resistance (SK-MEL-28, PLX4720 - 2 uM, ligand 1.6 ng/ml): 1.12 | ability of recombinant RTK ligand to confer resistance (SK-MEL-28, PLX4720 - 2 uM, ligand 6.25 ng/ml): 0.99 | ability of recombinant RTK ligand to confer resistance (SK-MEL-28, PLX4720 - 2 uM, ligand 25 ng/ml): 1.08 | ability of recombinant RTK ligand to confer resistance (SK-MEL-28, PLX4720 - 2 uM, ligand 100 ng/ml): 0.99
